# Reference: publication PMC3235159
# Assays:
# [1] = biological target: Purified LRP1 (LDL receptor-related protein 1) (UniProt Q07954); assay: SPR; purified LRP1 immobilised on a CM5 chip by amine coupling (5.8 fmol/mm^2, 3,500 RU); TGF-β2 flowed at 6, 12, 15, 50, 100 and 200 nM; HBS-P pH 7.4, 0.005% Tween 20, 1 mM CaCl2, 20 µl/min, 25°C; Rmax of pseudo-first order fits replotted against concentration and fit to a single class of sites
# [2] = biological target: TGF-β1 (Homo sapiens) (UniProt P01137); settings: cited from earlier work
# Sequence of TGF-β1 (Homo sapiens) (P01137 279-390): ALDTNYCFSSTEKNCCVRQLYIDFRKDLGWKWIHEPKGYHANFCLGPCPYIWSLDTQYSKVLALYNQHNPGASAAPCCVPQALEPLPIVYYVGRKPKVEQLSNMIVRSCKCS
# Sequence of LRP1 (Q07954 20-4544): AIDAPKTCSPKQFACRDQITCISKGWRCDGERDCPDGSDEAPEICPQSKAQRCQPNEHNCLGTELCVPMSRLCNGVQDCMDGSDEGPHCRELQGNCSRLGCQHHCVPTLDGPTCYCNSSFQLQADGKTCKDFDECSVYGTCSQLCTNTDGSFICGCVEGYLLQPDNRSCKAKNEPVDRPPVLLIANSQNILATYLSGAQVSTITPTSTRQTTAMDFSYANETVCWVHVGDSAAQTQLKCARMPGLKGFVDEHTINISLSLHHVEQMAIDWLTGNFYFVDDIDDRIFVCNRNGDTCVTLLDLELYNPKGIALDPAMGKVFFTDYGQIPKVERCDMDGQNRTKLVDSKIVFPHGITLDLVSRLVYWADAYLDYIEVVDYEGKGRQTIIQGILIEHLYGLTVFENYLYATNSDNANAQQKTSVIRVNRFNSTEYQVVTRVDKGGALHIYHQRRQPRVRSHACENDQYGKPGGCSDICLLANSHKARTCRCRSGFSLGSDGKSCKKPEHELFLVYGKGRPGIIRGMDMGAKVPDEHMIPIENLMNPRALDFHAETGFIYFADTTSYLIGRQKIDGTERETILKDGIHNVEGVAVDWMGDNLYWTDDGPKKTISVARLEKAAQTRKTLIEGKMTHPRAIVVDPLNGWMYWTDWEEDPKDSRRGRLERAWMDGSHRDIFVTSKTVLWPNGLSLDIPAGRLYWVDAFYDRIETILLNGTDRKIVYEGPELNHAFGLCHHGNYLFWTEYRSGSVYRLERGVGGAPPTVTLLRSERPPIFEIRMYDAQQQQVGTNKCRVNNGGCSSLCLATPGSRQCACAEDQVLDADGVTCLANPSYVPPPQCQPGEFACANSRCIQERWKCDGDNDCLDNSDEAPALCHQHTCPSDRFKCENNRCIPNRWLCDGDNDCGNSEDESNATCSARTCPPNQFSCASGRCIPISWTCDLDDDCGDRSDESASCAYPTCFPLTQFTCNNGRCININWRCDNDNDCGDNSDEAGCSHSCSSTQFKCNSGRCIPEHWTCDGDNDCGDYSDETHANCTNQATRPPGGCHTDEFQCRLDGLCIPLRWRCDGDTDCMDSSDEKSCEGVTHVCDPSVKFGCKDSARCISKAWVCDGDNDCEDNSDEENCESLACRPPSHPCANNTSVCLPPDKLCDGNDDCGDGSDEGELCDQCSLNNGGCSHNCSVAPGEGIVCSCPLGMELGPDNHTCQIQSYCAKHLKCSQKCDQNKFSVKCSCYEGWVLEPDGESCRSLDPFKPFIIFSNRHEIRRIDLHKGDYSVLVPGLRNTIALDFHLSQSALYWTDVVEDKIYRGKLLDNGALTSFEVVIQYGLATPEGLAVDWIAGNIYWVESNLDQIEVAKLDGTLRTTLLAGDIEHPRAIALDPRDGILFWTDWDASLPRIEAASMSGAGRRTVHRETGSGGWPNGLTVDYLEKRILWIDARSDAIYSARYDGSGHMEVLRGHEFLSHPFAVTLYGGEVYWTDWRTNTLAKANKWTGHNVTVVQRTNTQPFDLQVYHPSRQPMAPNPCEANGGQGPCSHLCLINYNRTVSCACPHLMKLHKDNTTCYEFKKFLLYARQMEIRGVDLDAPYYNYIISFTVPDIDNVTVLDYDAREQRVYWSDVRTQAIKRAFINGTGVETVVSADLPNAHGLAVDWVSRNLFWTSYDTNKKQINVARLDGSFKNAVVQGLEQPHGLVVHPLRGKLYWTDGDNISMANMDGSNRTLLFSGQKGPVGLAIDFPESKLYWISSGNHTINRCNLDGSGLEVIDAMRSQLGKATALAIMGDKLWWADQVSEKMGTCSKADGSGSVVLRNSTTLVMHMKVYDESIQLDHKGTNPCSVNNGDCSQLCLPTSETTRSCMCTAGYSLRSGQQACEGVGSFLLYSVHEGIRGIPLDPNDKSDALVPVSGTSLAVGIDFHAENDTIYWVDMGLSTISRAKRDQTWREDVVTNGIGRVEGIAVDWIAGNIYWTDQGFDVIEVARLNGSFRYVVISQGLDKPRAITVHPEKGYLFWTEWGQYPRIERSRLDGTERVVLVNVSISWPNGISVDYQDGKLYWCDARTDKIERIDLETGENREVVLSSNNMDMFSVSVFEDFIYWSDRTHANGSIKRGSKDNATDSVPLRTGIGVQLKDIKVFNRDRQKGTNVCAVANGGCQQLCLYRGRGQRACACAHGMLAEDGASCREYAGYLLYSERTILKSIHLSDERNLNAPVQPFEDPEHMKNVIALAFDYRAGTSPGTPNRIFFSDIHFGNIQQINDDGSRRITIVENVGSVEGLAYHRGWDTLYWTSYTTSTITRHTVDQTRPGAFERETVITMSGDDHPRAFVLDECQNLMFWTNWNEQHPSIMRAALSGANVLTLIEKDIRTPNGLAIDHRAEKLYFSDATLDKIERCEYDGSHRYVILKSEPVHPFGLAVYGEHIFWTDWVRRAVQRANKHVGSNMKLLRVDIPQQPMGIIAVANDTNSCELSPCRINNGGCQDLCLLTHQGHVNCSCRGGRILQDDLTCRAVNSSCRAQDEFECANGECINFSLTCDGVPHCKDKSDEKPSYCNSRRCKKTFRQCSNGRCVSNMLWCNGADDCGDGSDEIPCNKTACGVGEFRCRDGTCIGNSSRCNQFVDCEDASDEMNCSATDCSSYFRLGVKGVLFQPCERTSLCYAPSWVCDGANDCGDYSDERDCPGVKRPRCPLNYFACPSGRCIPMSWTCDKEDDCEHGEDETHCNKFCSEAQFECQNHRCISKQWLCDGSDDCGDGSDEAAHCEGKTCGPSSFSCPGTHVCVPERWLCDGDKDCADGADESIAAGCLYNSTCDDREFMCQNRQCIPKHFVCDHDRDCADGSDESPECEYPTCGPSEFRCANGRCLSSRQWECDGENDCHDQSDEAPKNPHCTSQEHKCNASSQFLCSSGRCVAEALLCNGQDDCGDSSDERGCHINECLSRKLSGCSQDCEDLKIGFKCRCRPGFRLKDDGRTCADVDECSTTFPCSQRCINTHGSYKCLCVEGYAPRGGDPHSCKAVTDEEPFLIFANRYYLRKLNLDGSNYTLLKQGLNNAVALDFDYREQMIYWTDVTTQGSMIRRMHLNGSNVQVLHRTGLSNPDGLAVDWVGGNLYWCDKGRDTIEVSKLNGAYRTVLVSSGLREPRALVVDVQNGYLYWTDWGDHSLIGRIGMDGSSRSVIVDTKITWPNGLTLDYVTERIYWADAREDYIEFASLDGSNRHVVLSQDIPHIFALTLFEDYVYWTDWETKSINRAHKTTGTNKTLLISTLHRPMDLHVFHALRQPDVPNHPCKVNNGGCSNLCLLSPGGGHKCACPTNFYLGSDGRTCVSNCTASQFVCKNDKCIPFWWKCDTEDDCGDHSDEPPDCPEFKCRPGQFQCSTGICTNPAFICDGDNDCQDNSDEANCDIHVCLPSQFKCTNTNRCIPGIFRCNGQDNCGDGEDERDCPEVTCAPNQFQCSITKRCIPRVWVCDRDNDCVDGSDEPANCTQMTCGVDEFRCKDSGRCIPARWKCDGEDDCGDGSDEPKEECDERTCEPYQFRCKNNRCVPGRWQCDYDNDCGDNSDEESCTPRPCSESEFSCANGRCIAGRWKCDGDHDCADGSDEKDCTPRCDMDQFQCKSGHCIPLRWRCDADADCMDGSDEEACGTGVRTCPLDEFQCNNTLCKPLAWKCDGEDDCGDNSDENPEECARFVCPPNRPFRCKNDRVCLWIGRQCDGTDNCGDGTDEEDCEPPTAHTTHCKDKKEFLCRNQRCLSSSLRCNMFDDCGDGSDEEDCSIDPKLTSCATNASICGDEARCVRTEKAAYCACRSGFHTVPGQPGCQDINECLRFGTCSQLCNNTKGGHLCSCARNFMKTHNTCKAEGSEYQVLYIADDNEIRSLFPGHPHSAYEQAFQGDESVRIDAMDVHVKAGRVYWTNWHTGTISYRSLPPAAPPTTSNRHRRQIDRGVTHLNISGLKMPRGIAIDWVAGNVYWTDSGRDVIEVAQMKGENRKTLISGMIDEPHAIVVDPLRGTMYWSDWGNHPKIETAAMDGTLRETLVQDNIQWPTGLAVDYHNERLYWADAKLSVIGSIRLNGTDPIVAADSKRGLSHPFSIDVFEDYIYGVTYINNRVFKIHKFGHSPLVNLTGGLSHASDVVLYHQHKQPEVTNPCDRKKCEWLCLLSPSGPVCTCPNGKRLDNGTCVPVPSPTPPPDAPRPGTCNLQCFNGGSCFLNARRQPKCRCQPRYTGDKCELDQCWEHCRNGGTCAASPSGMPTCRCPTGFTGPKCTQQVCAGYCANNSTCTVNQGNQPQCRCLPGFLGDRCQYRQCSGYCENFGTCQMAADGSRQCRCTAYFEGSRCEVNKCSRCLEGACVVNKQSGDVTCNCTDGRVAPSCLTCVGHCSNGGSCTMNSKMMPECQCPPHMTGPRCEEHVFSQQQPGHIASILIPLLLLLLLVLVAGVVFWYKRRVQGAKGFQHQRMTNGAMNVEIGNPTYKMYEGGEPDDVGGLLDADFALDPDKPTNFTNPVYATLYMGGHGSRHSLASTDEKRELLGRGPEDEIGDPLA
# Sequence of Purified LRP1 (LDL receptor-related protein 1) (Q07954 20-4544): as above
Substance,Kd [1],Kd [2]
TGF-β2 (Sigma) (ligand),222 nM,
LRP1 (from UniProt Q07954),,157 nM
